This is an account of results in patent US20150266963A1 (ARGEN X B V, published 2015).

The term koff denotes the first-order rate constant of dissociation.

Assay [1] addresses T1, recombinant human CD27 Fc chimera (CD27-Fc) (human, UniProt P26842 21-192).
T1 construct: Bought reagent; also called recombinant CD27-Fc; Fc part of the bought chimera not given
T1 sequence (looked up): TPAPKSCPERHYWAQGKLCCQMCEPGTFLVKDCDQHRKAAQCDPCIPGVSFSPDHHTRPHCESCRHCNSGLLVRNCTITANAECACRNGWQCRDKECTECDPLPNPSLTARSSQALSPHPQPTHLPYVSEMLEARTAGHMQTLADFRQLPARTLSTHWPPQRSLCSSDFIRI
As to the kind of experiment: ELISA; captured Flag-TNC-CD70. In general terms: In an ELISA, binding on a coated surface is turned into a signal by an enzyme label.

The target in assay [2] is T2, rhesus recombinant CD70 (FLAG-TNC-rhesus CD70) (rhesus).
T2 construct: also called rhesus Flag-TNC-CD70
Nature of the assay: Biacore; rhesus recombinant CD70 on chip; Fab injected.

The target in assay [3] is T3, recombinant human CD70 (Flag-TNC-CD70) (human, UniProt P32970 39-193).
T3 construct: extracellular domain; Captured by anti-Flag mAb in ELISA; as 'recombinant human CD70' immobilised on Biacore CM5 chips; TNC is for trimerisation; also called recombinant CD70; human recombinant CD70; not shown: Flag tag and TNC trimerisation domain
T3 sequence (looked up): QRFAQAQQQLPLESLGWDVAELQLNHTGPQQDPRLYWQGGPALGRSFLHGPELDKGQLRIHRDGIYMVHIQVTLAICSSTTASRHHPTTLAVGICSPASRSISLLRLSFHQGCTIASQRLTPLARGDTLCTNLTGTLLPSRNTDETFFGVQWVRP
Nature of the assay: inhibition ELISA: Flag-TNC-CD70 captured by anti-Flag mAb, Fab titrated, remaining binding of CD27-Fc detected. On the procedure:
From selected phage transfected into TG1, individual colonies were picked randomly for growth in 96 well plates. After IPTG induction according to standard protocols periplasmic fractions (penis) containing Fabs were prepared. […] In this assay, Flag-TNC-CD70 is captured by an anti-Flag mAb and binding of CD27-Fc is detected via a biotinylated anti-CD27 mAb and strep-HRP in the absence or presence of CD70 Fabs (FIGS. 2 and 3) or CD70 mAbs (FIG. 4). In FIG. 2B it can be seen that 27B3, which has an identical VH as 9D1, but contains a somewhat different light chain, seems to block binding of CD27 to CD70 more efficiently, which was in line with the better off rate of this Fab as measured on Biacore (data not shown). Table 3 indicates the blocking potency (expressed as IC50) for the various llama-human chimeric mAbs tested in the CD70 inhibition ELISA. […] FIG. 3 is a composite of an experiment testing llama CD70 Fabs for blocking activity (in the inhibition ELISA, see white bars) and for CD70 binding (binding ELISA, black bars). For the binding ELISA, Flag-TNC-CD70 is captured by an anti-Flag mAb and binding of the Fabs is detected using an anti-myc-HRP mAb, which recognizes the MYC tag fused to the C-terminus of the Fd fragment. For comparison purposes, known monoclonal antibodies to CD70 (SGN70 described in US 2010/0129362 A1, clone 1F6; and MDX69A7 described in WO2008/074004 FIGS. 5A and 5B) were tested in parallel. […] Of interest is clone 59D10, which as Fab has no blocking activity, but when converted into a chimeric IgG was antagonistic (see Table 3). Amino acid sequences of the VH and VL domains of binding and blocking llama-derived Fab clones are shown elsewhere herein (Tables 6-9).

Assay [4] concerns the target T3, recombinant human CD70 (Flag-TNC-CD70). As to the kind of experiment: Biacore; recombinant human CD70 on CM5 chip; Fab injected. On the procedure:
Off-rates of the purified llama-derived anti-CD70 blocking Fabs were determined using the Biacore. Recombinant human CD70 was immobilized on a CM5 Biacore chip. The immobilization was performed in accordance with a method provided by Biacore and by using the NHS/EDC kit (Biacore AB): after activation of the chip, a solution of 50 μg/ml of recombinant CD70 in 10 mM acetate buffer with pH of 5 was prepared and 1 μl of this solution (50ng) was injected resulting in a surface density of approximately 1000 RU.
Fabs for the CD70 mAbs ARGX-110, MDX2H5 and SGN70 were prepared by […] digestion (SGN70 and MDX69A7 are described elsewhere herein, MDX2H5, also referred to as MDX1411, is described in WO2008/074004 FIGS. 1A and 1B). Fabs, at a concentration of approximately 100-400 μg/ml, were diluted 6-fold in hepes-buffered saline (0.1M Hepes, 1.5M NaCl, 30 mM EDTA, 0.5% v/v surfactant P20). They were injected (30 μl) and passed through the flow cells at a flow rate of 30 μl/min. After binding of the Fab to CD70, the off-rate was monitored for a period of 10 minutes. After the dissociation, the flow cell surfaces were regenerated by injecting 5 μl of 10 mM NaOH. Sometimes multiple injections of NaOH were needed to regenerate the surfaces depending on the affinity of the Fabs. Off-rate analysis was done by applying the BIAevaluation software. First, the sensogram of the blank runs were subtracted from those obtained with the coated flow cell. […] Moreover, the off-rate of CD27 for CD70 was determined as well.
(SPR reads the build-up and loss of mass on a sensor chip optically.)

Assay [5] addresses T4, human CD70 expressed on the surface of cells (human, UniProt P32970 1-193).
T4 sequence (looked up): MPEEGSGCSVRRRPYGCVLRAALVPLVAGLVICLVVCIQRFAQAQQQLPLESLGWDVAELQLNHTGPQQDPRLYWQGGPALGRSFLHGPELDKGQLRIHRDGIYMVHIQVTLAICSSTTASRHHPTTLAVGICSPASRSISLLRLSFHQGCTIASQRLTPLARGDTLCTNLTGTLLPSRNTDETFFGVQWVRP
As to the kind of experiment: cell-based or functional assay.

B1: human-mouse CD70 chimera chim-4 (Flag-TNC-CD70) (ligand, not shown: small tags and cut ends)
chain: HPEPHTAELQLNLTVPRKDPTLRWGAGPALGRSFTHGPELEEGHLRIHQDGLYRLHIQVTLANCSSPGSTLQHRATLAVGICSPAAHGISLLRGRFGQDCTVALQRLTYLVHGDVLCTNLTGTLLPSRNTDETFFGVQWVRP
notes: also called chimera 4
With B1, the binding result in assay [1] was “binds”.

B2: 5F4 Fab (Fab, V domains shown)
VH: EVQVQESGGGLVHPGGSLKLSCAASGFTFDTYAMSWVRQAPGKGLEWVSAISWSGGETFYAESMKGRFTISRNNAKNTLYLQMNSLKSEDTAVYYCARGMGLAEGLTDWGQGTQVTVSS
VL: QAVVTHPPSLSASPGSSVRLTCTLISGDNIGGYDISWYQQKTGSPPRYLLYYYSDSYKHQSSGVPSRFSGSKDASANAGLLLISGLQSEDEADYYCSAYKSGSYKAPVFGGGTHLTVLG
notes: Llama-derived Fab
For the molecule B2, the koff was 0.0005 s⁻¹ in assay [2] and 8e-05 s⁻¹ in assay [4]. For the same molecule, the “IC50 (read off the curve)” value in assay [3] is around 0.2 µg/mL.

B3: human-mouse CD70 chimera chim-3 (Flag-TNC-CD70) (ligand, not shown: small tags and cut ends)
chain: HPEPHTAELQLNLTVPRKDPTLRWGAGPALGRSFTHGPELEEGHLRIHQDGLYRLHIQVTLANCSSPGSTLQHRATLAVGICSPASRSISLLRLSFHQGCTIASQRLTPLARGDTLCTNLTGTLLPSRNTDETFFGVQWVRP
notes: also called chimera 3
B3: the binding result in assay [1] was “binds”.

B4: 9G2 Fab (Fab, V domains shown)
VH: QVQLVESGGGLMQPGGSLRLSCAASGFTFSSSAMSWVRQAPGKGLEWVSSIYSDSSYTYYADSVKSRFTISTDNAKNTLYLQMNSLKPDDTAVYYCAGSSDYEGSFASWGQGTQVTVSS
VL: QSVVTQPPSLSASPGSSVRLTCTLSSGNSVGNYDISWYQQKAGSPPRYLLYYYSDSVKHQGSGVPSRFSGSSDASANAGLLLISGLQPEDEADYYCSAYKSGSHVFGGGTKLTVLG
notes: Llama-derived Fab
Consider B4, for which the koff in assay [2] and in assay [4] was 0.00018 s⁻¹ in each case. In addition, in assay [3], the “IC50 (read off the curve)” value was around 2 nM.

B5: human-mouse CD70 chimera chim-1 (Flag-TNC-CD70) (ligand)
chain: HPEPHTAELQLNLTVPRKDPTLRWGAGPALGRSFLHGPELDKGQLRIHRDGIYMVHIQVTLAICSSTTASRHHPTTLAVGICSPASRSISLLRLSFHQGCTIASQRLTPLARGDTLCTNLTGTLLPSRNTDETFFGVQWVRP
modifications: Soluble homotrimer held by the TNC domain; one CD70 ECD chain is given.
notes: also called chimera 1; not shown: N-terminal Flag tag, TNC (tenascin-C) trimerisation domain and any linkers of the Flag-TNC-CD70 construct
Turning to B5, the binding result in assay [1] was “binds”.

B6: human-mouse CD70 chimera chim-2 (Flag-TNC-CD70) (ligand, not shown: small tags and cut ends)
chain: HPEPHTAELQLNLTVPRKDPTLRWGAGPALGRSFTHGPELEEGHLRIHQDGLYRLHIQVTLANCSSTTASRHHPTTLAVGICSPASRSISLLRLSFHQGCTIASQRLTPLARGDTLCTNLTGTLLPSRNTDETFFGVQWVRP
notes: also called chimera 2
In the case of B6, in assay [1], the binding result is given as “binds”.

B7: human-mouse CD70 chimera chim-2.1 (Flag-TNC-CD70) (ligand)
chain: HPEPHTAELQLNLTVPRKDPTLRWGAGPALGRSFTHGPELDKGQLRIHRDGIYMVHIQVTLAICSSTTASRHHPTTLAVGICSPASRSISLLRLSFHQGCTIASQRLTPLARGDTLCTNLTGTLLPSRNTDETFFGVQWVRP
modifications: Soluble homotrimer held by the TNC domain; one CD70 ECD chain is given.
notes: also called chimera 2.1; not shown: N-terminal Flag tag, TNC (tenascin-C) trimerisation domain and any linkers of the Flag-TNC-CD70 construct
For B7, in assay [1], the binding result is given as “binds”.

B8: human-mouse CD70 chimera chim-2.2 (Flag-TNC-CD70) (ligand)
chain: HPEPHTAELQLNLTVPRKDPTLRWGAGPALGRSFTHGPELEEGHLRIHRDGIYMVHIQVTLAICSSTTASRHHPTTLAVGICSPASRSISLLRLSFHQGCTIASQRLTPLARGDTLCTNLTGTLLPSRNTDETFFGVQWVRP
notes: also called chimera 2.2; not shown: N-terminal Flag tag, TNC trimerisation domain and any linkers of the Flag-TNC-CD70 construct
With B8, the binding result in assay [1] is “binds”.

B9: human-mouse CD70 chimera chim-2.4 (Flag-TNC-CD70) (ligand, not shown: small tags and cut ends)
chain: HPEPHTAELQLNLTVPRKDPTLRWGAGPALGRSFTHGPELEEGHLRIHQDGLYRLHIQVTLAICSSTTASRHHPTTLAVGICSPASRSISLLRLSFHQGCTIASQRLTPLARGDTLCTNLTGTLLPSRNTDETFFGVQWVRP
notes: also called chimera 2.4
On to B9, for which, in assay [1], the binding result is “binds”.

B10: 53A2 mAb (full-length human IgG1, HEK293) (antibody, V domains shown)
VH: EVQLVESGGGLVQPGGSLRLSCAASGFTFSVYYMNWVRQAPGKGLEWVSDINNEGGTTYYADSVKGRFTISRDNSKNSLYLQMNSLRAEDTAVYYCARDAGYSNHVPIFDSWGQGTLVTVSS
VL: QAVVTQEPSFSVSPGGTVTLTCGLKSGSVTSDNFPTWYQQTPGQAPRLLIYNTNTRHSGVPDRFSGSILGNKAALTITGAQADDEAEYFCALFISNPSVEFGGGTQLTVLG
Consider B10, for which the “Raji co-culture assay IC50 relative to 27B3” value in assay [5] is 0.8 fold of 27B3.

B11: 53H1 mAb (full-length human IgG1, HEK293) (antibody, V domains shown)
VH: EVQLVESGGGLVQPGGSLRLSCAASGFTFSVYYMNWVRQAPGKGLEWVSDINNEGGTTYYADSVKGRFTISRDNSKNSLYLQMNSLRAEDTAVYYCARDAGYSNHVPIFDSWGQGTLVTVSS
VL: QTVVTQEPSFSVSPGGTVTLTCGLKSGSVTSDNFPTWYQQTPGQAPRLLIYNTNTRHSGVPDRFSGSILGNKAALTITGAQADDEAEYFCALFISNPSVEFGGGTQLTVLG
B11: the “Raji co-culture assay IC50 relative to 27B3” value in assay [5] is 1.6 fold of 27B3.

B12: 41D12 mAb (full-length human IgG1, HEK293) (antibody, V domains shown)
VH: EVQLVESGGGLVQPGGSLRLSCAASGFTFSVYYMNWVRQAPGKGLEWVSDINNEGGTTYYADSVKGRFTISRDNSKNSLYLQMNSLRAEDTAVYYCARDAGYSNHVPIFDSWGQGTLVTVSS
VL: QAVVTQEPSLTVSPGGTVTLTCGLKSGSVTSDNFPTWYQQTPGQAPRLLIYNTNTRHSGVPDRFSGSILGNKAALTITGAQADDEAEYFCALFISNPSVEFGGGTQLTVLG
Turning to B12, the “Raji co-culture assay IC50 relative to 27B3” value in assay [5] was 1.2 fold of 27B3.

B13: 40F1 mAb (full-length human IgG1, HEK293) (antibody, V domains shown)
VH: EVQLVESGGGLVQPGGSLRLSCAASGFTFSVYYMNWVRQAPGKGLEWVSDINNEGGATYYADSVKGRFTISRDNSKNSLYLQMNSLRAEDTAVYYCARDAGYSNHVPIFDSWGQGTQVTVSS
VL: QAVVTQEPSFSVSPGGTVTLTCGLKSGSVTSDNFPTWYQQTPGQAPRLLIYNTNTRHSGVPDRFSGSILGNKAALTITGAQADDEAEYFCALFISNPSVEFGGGTQLTVLG
For the molecule B13, the “Raji co-culture assay IC50 relative to 27B3” value in assay [5] is 1.8 fold of 27B3.

B14: 35G2 mAb (full-length human IgG1, HEK293) (antibody, V domains shown)
VH: EVQLVESGGGLVQPGGSLRLSCAASGFTFSVYYMNWVRQAPGKGLEWVSDINNEGGTTYYADSVKGRFTISRDNAKNTLYLQMNSLKPEDTAVYYCARDAGYSNHVPIFDSWGQGTLVTVSS
VL: QTVVTQEPSFSVSPGGTVTLTCGLKSGSVTSTNFPTWYQQTPGQAPRLLIYNTNSRHSGVPDRFSGSILGNKAALTITGAQADDEADYFCALFISNPSVEFGGGTQLTVLG
Regarding B14, the “Raji co-culture assay IC50 relative to 27B3” value in assay [5] is 1.4 fold of 27B3.
